Patent US20260217818A1 (Y BIOLOGICS, published 2026)

Experiments:
[1] = biological target: T1, human claudin-18.2 (claudin-18 spliced variant 2, CLDN18.2) overexpressed on HEK293E/18.2 or CHO-K1/18.2 cells (human, UniProt P56856 1-261); test: cell-based or functional assay
T1 sequence: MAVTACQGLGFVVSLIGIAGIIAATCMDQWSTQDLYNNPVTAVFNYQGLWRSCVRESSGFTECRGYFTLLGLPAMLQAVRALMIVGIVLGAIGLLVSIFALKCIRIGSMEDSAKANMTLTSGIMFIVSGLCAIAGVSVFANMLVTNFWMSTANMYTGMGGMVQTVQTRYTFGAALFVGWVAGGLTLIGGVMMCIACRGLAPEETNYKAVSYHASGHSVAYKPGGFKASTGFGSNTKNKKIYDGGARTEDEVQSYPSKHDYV

[2] = biological target: T2, human CLDN18.1 protein (EUPROTEIN, #EPY255141), coated antigen (human, UniProt P56856 1-261, limits assumed); test: ELISA, CLDN18.1 coated at 1 µg/mL, serially diluted antibody
T2 construct: Bought antigen; also called CLDN18.1 antigen
T2 sequence (looked up): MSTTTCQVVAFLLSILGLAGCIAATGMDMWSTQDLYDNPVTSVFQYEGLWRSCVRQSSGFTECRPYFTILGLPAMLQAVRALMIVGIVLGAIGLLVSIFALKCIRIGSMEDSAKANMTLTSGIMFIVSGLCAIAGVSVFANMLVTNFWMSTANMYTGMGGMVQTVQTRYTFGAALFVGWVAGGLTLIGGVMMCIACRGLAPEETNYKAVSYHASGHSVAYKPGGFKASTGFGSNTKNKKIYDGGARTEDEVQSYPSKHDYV
Protocol: (§1) CLDN18.1 (EUPROTEIN, #EPY255141) and CLDN18.2 (CUSABIO, #CSB-MP005498HU (A5)) proteins were each prepared at a concentration of 1 μg/mL using a dilution buffer (4% skim milk/0.05% tween-20/PBS), and 100 μL of each was added to individual wells of an immunoassay plate (Thermo, #439454) and incubated statically at 4° C. for more than 16 hours. After three washes with 300 μL of wash buffer (0.05% tween-20/PBS), 200 μL of blocking buffer (4% skim milk/0.05% tween-20/PBS) was added to the wells and incubated for 1 hour at room temperature. After three washes, 100 μL of the anti-CLDN18.2 antibodies, each prepared by serial dilution, was added to each well and incubated at room temperature for 1 hour with rocking. After three washes, 100 μL of anti-human kappa-HRP (Sigma, #A7164) antibody, prepared at dilution ratio of 1:3,000, was added to each well and incubated at room temperature for 1 hour. After three washes, 100 μL of TMB substrate (Sigma, #T0440) was added to each well and incubated in the dark at room temperature, and when color development was observed, 50 μL of stop solution (1N H₂SO₄) was added to stop the reaction. Absorbance was measured using a microplate reader (Promega, GM3000).

[3] = biological target: T3, human CLDN18.2 protein (CUSABIO, #CSB-MP005498HU (A5)), coated antigen (human, UniProt P56856 1-261); test: ELISA, CLDN18.2 coated at 1 µg/mL, serially diluted antibody
T3 construct: also called CLDN18.2 antigen; CLDN18.2-VLPs antigen
T3 sequence: T1 sequence
Protocol: as §1

[4] = biological target: T1, human claudin-18.2 (claudin-18 spliced …); test: cell-based or functional assay; remark: listed apart in the source

B1: 0058-001 (antibody, V domains shown)
VH: QVQLVESGGGLVQPGGSLRLSCAASGFTFSSYAMSWVRQAPGKGLEWVAAISGSGGSTYFADSVRGRFTISRDNPQSTLYLQMNSLRAEDTAVYYCAKEGVWWLRYFDHWGQGTPITVSS
VL: QSALTQPRSVSGSPGQSVTISCTGTSNDVGGYTYVSWYQQHPGKAPKLMIYDVSKRPSGVPDRFSGSKSGNTASLTISGLQAEDEADYYCSSYAGSYTWVFGGGTKLTVL
notes: scFv clone from a human phage library, converted into IgG form for the experiments; also called anti-CLDN18.2 antibody 0058-001; monoclone 0058-001
- Cell viability (%) at 10 nM, HEK293E/18.2 (Fab-ZAP assay) [1]: 76%
- IC50 (nM), HEK293E/18.2 (Fab-ZAP assay) [1]: 0.1 nM
- binding result [2]: no binding
- binding result [3]: binds
- cellular internalization (IncuCyte FabFluor, HEK293E/18.2 cells) [4]: 50%

B2: 0058-003 (antibody, V domains shown)
VH: QVQLVQSGGGLVQPGGSLRLSCAASGFTFSSYAMSWVRQAPGKGLEWVSAISGSGGSTYYADSVKGRFTISRDNSKNTLYLQMNSLRAEDTAVYYCARGAASSYYFDYWGLGTTVTVSS
VL: DIQMTQSPSSLAAYVGDTVTITCRASAGVRNYLAWVQQKPGKAPRSLIYGAFKLQSGVPSRFSGSGSGTEFTLTISSLQPEDFGTYYCQQYHSFPPTFGGGTKVDIK
notes: scFv clone from a human phage library, converted into IgG form for the experiments; also called anti-CLDN18.2 antibody 0058-003; monoclone 0058-003
- Cell viability (%) at 10 nM, HEK293E/18.2 (Fab-ZAP assay) [1]: 56%
- IC50 (nM), HEK293E/18.2 (Fab-ZAP assay) [1]: 0.04 nM
- binding result [2]: no binding
- binding result [3]: binds
- cellular internalization (IncuCyte FabFluor, HEK293E/18.2 cells) [4]: 50%

B3: 0058-002 (antibody, V domains shown)
VH: QMQLVESGGGLVQPGGSLRLSCAASGFTFSSYAMSWVRQAPGKGLEWVSAISGSGGSTYYADSVKGRFTISRDNSKNTLYLQMNSLRAEDTAVYYCARGLGYYYYGMDVWGQGTTVTVSS
VL: DIQMTQSPSSLSASVGDRVTITCRASQTVSSWLAWYQQKPGKAPKLLIYAASSLQSGVPSRFSGSGSGTEFTLTISSLQPEDFGTYYCQQYHSFPPTFGGGTKVGIK
notes: scFv clone from a human phage library, converted into IgG form for the experiments; also called anti-CLDN18.2 antibody 0058-002; monoclone 0058-002
- Cell viability (%) at 10 nM, HEK293E/18.2 (Fab-ZAP assay) [1]: 58%
- IC50 (nM), HEK293E/18.2 (Fab-ZAP assay) [1]: 0.04 nM
- binding result [2]: no binding
- binding result [3]: binds
- cellular internalization (IncuCyte FabFluor, HEK293E/18.2 cells) [4]: 50%
